Data: US20070225207A1 (NOVOZYMES A S, published 2007)

Target: IgE of dust mite allergic patient Donor 11 (serum IgE; IgE on the donor's basophils in the histamine release …)
Experiment: cell-based or functional assay

B1: Der p 1 variant DP060 (S54N, Q68F) (other)
chain: TNACSINGNAPAEIDLRQMRTVTPIRMQGGCGSCWAFSGVAATESAYLAYRNQNLDLAEQELVDCASFHGCHGDTIPRGIEYIQHNGVVQESYYRYVAREQSCRRPNAQRFGISNYCQIYPPNVNKIREALAQTHSAIAVIIGIKDLDAFRHYDGRTIIQRDNGYQPNYHAVNIVGYSNAQGVDYWIVRNSWDTNWGDNGYGYFAANIDLMMIEEYPYVVIL
  potency to induce histamine release in human basophil assay, relative to nDer p 1: 20 fold
